# Experimental data from US20220098265A1 (MEDIMMUNE LIMITED, priority 2012, published 2022).
# Like-named read-outs stand apart in the source and are kept apart here. Numbered stars: 1 amine (or outer) side, 2 acyl side, 3 side chain; on linkers, the order of the positions; unused ones are H or OH. Side chains are listed from the residue outwards. Ends that are not written are not given here. Peptide text beside a SMILES is read from it. * marks the point of attachment. γGlu = O=C(O)[C@H](CCC(=O)[*:2])N[*:1]; Palmitoyl = CCCCCCCCCCCCCCCC(=O)*
# T1: human glucose-dependent insulinotropic peptide (gastric inhibitory polypeptide) receptor (human, UniProt P48546 22-466)
# T1 sequence (looked up): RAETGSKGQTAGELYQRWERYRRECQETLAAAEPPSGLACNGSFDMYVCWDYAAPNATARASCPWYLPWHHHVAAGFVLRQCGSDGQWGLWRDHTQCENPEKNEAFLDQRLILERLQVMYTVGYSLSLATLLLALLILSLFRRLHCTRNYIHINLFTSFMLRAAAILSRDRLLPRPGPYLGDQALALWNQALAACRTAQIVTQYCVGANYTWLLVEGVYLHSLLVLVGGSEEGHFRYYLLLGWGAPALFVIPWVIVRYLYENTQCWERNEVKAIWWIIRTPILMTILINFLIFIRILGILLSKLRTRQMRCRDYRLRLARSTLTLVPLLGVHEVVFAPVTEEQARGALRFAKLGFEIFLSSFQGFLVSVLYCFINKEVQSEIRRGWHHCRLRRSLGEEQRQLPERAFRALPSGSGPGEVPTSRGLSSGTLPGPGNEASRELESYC
# T2: mouse GLP-1 receptor (mouse, UniProt O35659 22-463)
# T2 sequence (looked up): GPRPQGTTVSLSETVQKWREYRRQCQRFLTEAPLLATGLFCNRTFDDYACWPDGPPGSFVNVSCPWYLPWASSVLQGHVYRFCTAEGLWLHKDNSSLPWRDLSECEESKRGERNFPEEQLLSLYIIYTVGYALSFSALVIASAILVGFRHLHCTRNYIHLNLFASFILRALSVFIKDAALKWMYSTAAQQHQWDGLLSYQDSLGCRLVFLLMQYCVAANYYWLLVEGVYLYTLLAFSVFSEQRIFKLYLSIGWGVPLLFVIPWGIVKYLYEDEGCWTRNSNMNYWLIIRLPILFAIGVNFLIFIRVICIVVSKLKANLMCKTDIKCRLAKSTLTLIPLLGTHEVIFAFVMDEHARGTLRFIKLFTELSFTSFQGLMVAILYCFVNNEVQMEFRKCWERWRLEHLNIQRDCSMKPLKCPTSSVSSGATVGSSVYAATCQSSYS
# B1: g327 (peptide)
# peptide: HSQGTFTSDYSKYLDSRRAQDFVQWLVAGGGGGGK([γGlu-Palmitoyl])-NH2
# modifications: N-terminus assumed
# SMILES: CCCCCCCCCCCCCCCC(=O)N[C@@H](CCC(=O)NCCCC[C@H](NC(=O)CNC(=O)CNC(=O)CNC(=O)CNC(=O)CNC(=O)CNC(=O)[C@H](C)NC(=O)[C@@H](NC(=O)[C@H](CC(C)C)NC(=O)[C@H](Cc1c[nH]c2ccccc12)NC(=O)[C@H](CCC(N)=O)NC(=O)[C@@H](NC(=O)[C@H](Cc1ccccc1)NC(=O)[C@H](CC(=O)O)NC(=O)[C@H](CCC(N)=O)NC(=O)[C@H](C)NC(=O)[C@H](CCCNC(=N)N)NC(=O)[C@H](CCCNC(=N)N)NC(=O)[C@H](CO)NC(=O)[C@H](CC(=O)O)NC(=O)[C@H](CC(C)C)NC(=O)[C@H](Cc1ccc(O)cc1)NC(=O)[C@H](CCCCN)NC(=O)[C@H](CO)NC(=O)[C@H](Cc1ccc(O)cc1)NC(=O)[C@H](CC(=O)O)NC(=O)[C@H](CO)NC(=O)[C@@H](NC(=O)[C@H](Cc1ccccc1)NC(=O)[C@@H](NC(=O)CNC(=O)[C@H](CCC(N)=O)NC(=O)[C@H](CO)NC(=O)[C@@H](N)Cc1c[nH]cn1)[C@@H](C)O)[C@@H](C)O)C(C)C)C(C)C)C(N)=O)C(=O)O
# B2: g322 (peptide)
# peptide: HSQGTFTSDYSKYLDSRRAQDFVQWLVAGGKNNRNNIAK(Palmitoyl)-NH2
# modifications: N-terminus assumed
# SMILES: CCCCCCCCCCCCCCCC(=O)NCCCC[C@H](NC(=O)[C@H](C)NC(=O)[C@@H](NC(=O)[C@H](CC(N)=O)NC(=O)[C@H](CC(N)=O)NC(=O)[C@H](CCCNC(=N)N)NC(=O)[C@H](CC(N)=O)NC(=O)[C@H](CC(N)=O)NC(=O)[C@H](CCCCN)NC(=O)CNC(=O)CNC(=O)[C@H](C)NC(=O)[C@@H](NC(=O)[C@H](CC(C)C)NC(=O)[C@H](Cc1c[nH]c2ccccc12)NC(=O)[C@H](CCC(N)=O)NC(=O)[C@@H](NC(=O)[C@H](Cc1ccccc1)NC(=O)[C@H](CC(=O)O)NC(=O)[C@H](CCC(N)=O)NC(=O)[C@H](C)NC(=O)[C@H](CCCNC(=N)N)NC(=O)[C@H](CCCNC(=N)N)NC(=O)[C@H](CO)NC(=O)[C@H](CC(=O)O)NC(=O)[C@H](CC(C)C)NC(=O)[C@H](Cc1ccc(O)cc1)NC(=O)[C@H](CCCCN)NC(=O)[C@H](CO)NC(=O)[C@H](Cc1ccc(O)cc1)NC(=O)[C@H](CC(=O)O)NC(=O)[C@H](CO)NC(=O)[C@@H](NC(=O)[C@H](Cc1ccccc1)NC(=O)[C@@H](NC(=O)CNC(=O)[C@H](CCC(N)=O)NC(=O)[C@H](CO)NC(=O)[C@@H](N)Cc1c[nH]cn1)[C@@H](C)O)[C@@H](C)O)C(C)C)C(C)C)[C@@H](C)CC)C(N)=O
# Assays:
# [1] = target: Human GlucR (Homo sapiens, UniProt P47871); conditions: read-out: hGlucR EC50; assay 1; additional peptides (Table 4)
# Sequence of Human GlucR (P47871 26-477): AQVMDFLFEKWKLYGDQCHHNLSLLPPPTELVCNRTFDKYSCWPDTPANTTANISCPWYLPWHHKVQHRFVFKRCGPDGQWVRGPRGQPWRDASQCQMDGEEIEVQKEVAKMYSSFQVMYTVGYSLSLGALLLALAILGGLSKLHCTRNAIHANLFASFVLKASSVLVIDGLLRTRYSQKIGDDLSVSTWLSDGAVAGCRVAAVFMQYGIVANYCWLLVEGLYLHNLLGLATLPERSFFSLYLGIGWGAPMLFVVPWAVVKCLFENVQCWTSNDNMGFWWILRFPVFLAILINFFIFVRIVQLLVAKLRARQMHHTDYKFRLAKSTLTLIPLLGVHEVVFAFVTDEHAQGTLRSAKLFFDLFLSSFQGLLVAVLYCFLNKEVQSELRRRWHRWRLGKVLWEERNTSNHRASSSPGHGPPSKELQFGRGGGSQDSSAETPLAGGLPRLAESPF
# Experimental: All sample dilutions were made in duplicate.
# A frozen cryo-vial of cells expressing the receptor of interest was thawed rapidly in a water-bath, transferred to pre-warmed assay media and spun at 240×g for 5 minutes. Cells were re-suspended in assay media at an optimised concentration (e.g. hGCGR cells at 1×10^5 cells/ml, hGLP-1R and hGIPR cells at 0.5×10^5 cells/ml).
# To this, 5 μL cell suspension was added and the plates incubated at room temperature for 30 minutes.
# cAMP levels were measured using a commercially available cAMP dynamic 2 HTRF kit (Cisbio, Cat #62AM4PEJ), following the two step protocol as per manufacturer's recommendations. In brief; anti-cAMP cryptate (donor fluorophore) and cAMP-d2 (acceptor fluorophore) were made up separately by diluting each 1/20 in conjugate & lysis buffer provided in the kit. 5 μL anti-cAMP cryptate was added to all wells of the assay plate, and 5 μL cAMP-d2 added to all wells except non-specific binding (NSB) wells, to which conjugate and lysis buffer was added.
# [2] = frozen blank plasma from rat; conditions: 37° C, up to 48 hours
# [3] = target: T3, human GLP-1 receptor (human, UniProt P43220 24-463); experiment: cell-based or functional assay
# [4] = target: T1, human glucose-dependent insulinotropic …; experiment: cell-based or functional assay
# [5] = target: T4, human glucagon receptor (human, UniProt P47871 26-477); experiment: cell-based or functional assay
# T4 sequence (P47871 26-477): as above
# [6] = target: T3, human GLP-1 receptor; experiment: cell-based or functional assay; remark: listed apart in the source
# [7] = target: T1, human glucose-dependent insulinotropic …; experiment: cell-based or functional assay; remark: listed apart in the source
# [8] = target: T4, human glucagon receptor; experiment: cell-based or functional assay; remark: listed apart in the source
# [9] = target: human serum albumin (Homo sapiens, UniProt P02768); experiment: calculated from the variation in cAMP generation with the HSA concentration (assay 2)
# Sequence of human serum albumin (P02768 25-609 limits assumed): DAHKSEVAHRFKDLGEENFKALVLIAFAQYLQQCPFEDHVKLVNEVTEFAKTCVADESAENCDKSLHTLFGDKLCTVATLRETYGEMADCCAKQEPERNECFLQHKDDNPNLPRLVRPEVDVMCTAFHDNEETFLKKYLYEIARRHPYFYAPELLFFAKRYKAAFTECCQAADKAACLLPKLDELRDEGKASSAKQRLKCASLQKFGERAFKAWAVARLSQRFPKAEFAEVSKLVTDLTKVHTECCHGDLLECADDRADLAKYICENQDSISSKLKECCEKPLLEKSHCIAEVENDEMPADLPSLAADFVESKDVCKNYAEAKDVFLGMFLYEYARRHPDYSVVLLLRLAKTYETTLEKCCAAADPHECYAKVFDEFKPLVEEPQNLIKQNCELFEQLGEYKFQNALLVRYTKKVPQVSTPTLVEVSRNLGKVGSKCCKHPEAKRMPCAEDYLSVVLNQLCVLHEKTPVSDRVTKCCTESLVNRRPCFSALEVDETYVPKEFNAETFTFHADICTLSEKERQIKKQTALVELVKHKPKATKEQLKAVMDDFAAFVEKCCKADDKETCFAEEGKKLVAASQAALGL
# [10] = target: T1, human glucose-dependent insulinotropic …; experiment: cell-based or functional assay; remark: listed apart in the source
# [11] = target: T3, human GLP-1 receptor; experiment: cell-based or functional assay; remark: listed apart in the source
# [12] = target: T4, human glucagon receptor; experiment: cell-based or functional assay; remark: listed apart in the source
# [13] = target: T2, mouse GLP-1 receptor; experiment: cell-based or functional assay
# [14] = target: mouse glucagon receptor (mouse, UniProt Q61606 27-485); experiment: cell-based or functional assay
# Sequence of mouse glucagon receptor (Q61606 27-485): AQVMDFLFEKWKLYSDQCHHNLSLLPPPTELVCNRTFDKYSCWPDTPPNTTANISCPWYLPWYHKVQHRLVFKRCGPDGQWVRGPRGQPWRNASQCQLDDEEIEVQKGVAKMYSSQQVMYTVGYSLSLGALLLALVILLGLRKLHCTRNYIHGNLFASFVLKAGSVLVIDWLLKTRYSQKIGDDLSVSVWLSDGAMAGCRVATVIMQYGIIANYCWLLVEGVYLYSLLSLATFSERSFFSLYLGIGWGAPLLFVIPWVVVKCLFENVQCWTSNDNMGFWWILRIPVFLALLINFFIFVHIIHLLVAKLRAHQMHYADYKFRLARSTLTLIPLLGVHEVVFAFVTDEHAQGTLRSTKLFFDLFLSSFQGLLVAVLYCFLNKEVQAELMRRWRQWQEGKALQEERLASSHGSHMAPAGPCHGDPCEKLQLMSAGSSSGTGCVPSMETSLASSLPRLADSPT
# [15] = target: T3, human GLP-1 receptor; experiment: cell-based or functional assay; remark: listed apart in the source
# [16] = target: T4, human glucagon receptor; experiment: cell-based or functional assay; remark: listed apart in the source
molecule,measurement,setting,value
CC(C)C[C@H](NC(=O)[C@H](Cc1ccc(O)cc1)NC(=O)[C@H](CCCCN)NC(=O)[C@H](CO)NC(=O)[C@H](Cc1ccc(O)cc1)NC(=O)[C@H](CC(=O)O)NC(=O)[C@H](CO)NC(=O)[C@@H](NC(=O)[C@H](Cc1ccccc1)NC(=O)[C@@H](NC(=O)CNC(=O)[C@H](CCC(N)=O)NC(=O)[C@H](CO)NC(=O)[C@@H](N)Cc1c[nH]cn1)[C@@H](C)O)[C@@H](C)O)C(=O)N[C@@H](CC(=O)O)C(=O)N[C@@H](CO)C(=O)N[C@@H](CCCNC(=N)N)C(=O)N[C@@H](CCCNC(=N)N)C(=O)N[C@@H](C)C(=O)N[C@@H](CCC(N)=O)C(=O)N[C@@H](CC(=O)O)C(=O)N[C@@H](Cc1ccccc1)C(=O)N[C@H](C(=O)N[C@@H](CCC(N)=O)C(=O)N[C@@H](Cc1c[nH]c2ccccc12)C(=O)N[C@@H](CC(C)C)C(=O)N[C@H](C(=O)N[C@@H](C)C(=O)NCC(=O)NCC(=O)N1CCC[C@H]1C(=O)N[C@@H](CO)C(=O)N[C@@H](CO)C(=O)NCC(=O)N[C@@H](C)C(=O)N1CCC[C@H]1C(=O)N1CCC[C@H]1C(=O)N1CCC[C@H]1C(=O)N[C@@H](CO)C(=O)N[C@@H](CCCCN)C(N)=O)C(C)C)C(C)C [g319] (H-HSQGTFTSDYSKYLDSRRAQDFVQWLVAGGPSSGAPPPSK-NH2; N-terminus assumed),EC50,[1],10.4 pM
CCCCCCCCCCCCCCCC(=O)N[C@@H](CCC(=O)NCCCC[C@H](NC(=O)[C@H](CO)NC(=O)[C@H](CC(=O)O)NC(=O)[C@H](CC(C)C)NC(=O)[C@H](Cc1ccc(O)cc1)NC(=O)[C@H](CCCCN)NC(=O)[C@H](CO)NC(=O)[C@H](Cc1ccc(O)cc1)NC(=O)[C@H](CC(=O)O)NC(=O)[C@H](CO)NC(=O)[C@@H](NC(=O)[C@H](Cc1ccccc1)NC(=O)[C@@H](NC(=O)CNC(=O)[C@H](CCC(N)=O)NC(=O)CNC(=O)[C@@H](N)Cc1c[nH]cn1)[C@@H](C)O)[C@@H](C)O)C(=O)N[C@@H](CCCNC(=N)N)C(=O)N[C@@H](C)C(=O)N[C@@H](C)C(=O)N[C@@H](CC(=O)O)C(=O)N[C@@H](Cc1ccccc1)C(=O)N[C@H](C(=O)N[C@@H](C)C(=O)N[C@@H](Cc1c[nH]c2ccccc12)C(=O)N[C@@H](CC(C)C)C(=O)N[C@H](C(=O)N[C@@H](C)C(=O)NCC(=O)NCC(N)=O)C(C)C)C(C)C)C(=O)O [g736] (H-HGQGTFTSDYSKYLDSK([γGlu-Palmitoyl])RAADFVAWLVAGG-NH2; N-terminus assumed),EC50,[1],920 pM
HSQGTFTSDXSRYLDSRSARDFVAWLEAGG-amide X10 = K(gE-palm),fragment found,[2],DPP IV-cleavage product
B1,cAMP EC50 (assay 1),[3],19.3 pM
same,cAMP EC50 (assay 1),[4],12800 pM
same,cAMP EC50 (assay 1),[5],2.32 pM
HSQGTFTSDXSSYLDSRSARDFVAWLEAGG (X10 = K(gE-palm); C-terminal acid) [G973],cAMP EC50 (assay 1),[6],12 pM
same,cAMP EC50 (assay 1),[7],47000 pM
same,cAMP EC50 (assay 1),[8],8.9 pM
B2,cAMP EC50 (assay 1),[3],10.6 pM
same,cAMP EC50 (assay 1),[4],1720 pM
same,cAMP EC50 (assay 1),[5],3.55 pM
HSQGTFTSDK([γGlu-Palmitoyl])SKYLEGQAAKEFIAWLEKGR-OH [G934],cAMP EC50 (assay 1),[6],18 pM
same,cAMP EC50 (assay 1),[7],3600 pM
same,cAMP EC50 (assay 1),[8],6.3 pM
HSQGTFTSDKSRYLDSRSARDFVAWLEAGG (X10 = K(gE-palm); C-terminal amide) [G849],free peptide at 4.4% HSA,[9],0.48%
same,cAMP EC50 (assay 1),[3],9.07 pM
same,cAMP EC50 (assay 1),[10],17000 pM
HGQGTFTSDYSKYLDSKRAQDFVQWLVAGG (X17 = K(gE-palm); C-terminal amide) [G380],cAMP EC50 (assay 1),[3],100 pM
same,cAMP EC50 (assay 1),[4],609000 pM
same,cAMP EC50 (assay 1),[5],362 pM
same,"cAMP EC50 (assay 2, 4.4% human serum albumin)",[11],6540 pM
same,"cAMP EC50 (assay 2, 4.4% human serum albumin)",[12],53600 pM
same,"cAMP EC50 (assay 2, 3.2% mouse serum albumin)",[13],15000 pM
same,"cAMP EC50 (assay 2, 3.2% mouse serum albumin)",[14],576000 pM
same,cAMP EC50 (assay 1),[15],77 pM
same,cAMP EC50 (assay 1),[10],130000 pM
same,cAMP EC50 (assay 1),[16],217 pM
HSQGTFTSDYSKYLDSRRAQDFVQWLVAGGKNNRNNIAK-NH2 [g321],cAMP EC50 (assay 1),[3],27.2 pM
same,cAMP EC50 (assay 1),[4],6410 pM
same,cAMP EC50 (assay 1),[5],27.9 pM
HSQGTFTSDKSSYLDSRRARDFVAWLEAGG (X10 = K(gE-palm); C-terminal amide) [G796],cAMP EC50 (assay 1),[3],14 pM
same,"cAMP EC50 (assay 2, 3.2% mouse serum albumin)",[13],130 pM
same,cAMP EC50 (assay 1),[10],14000 pM
HSQGTFTSDKSKYLEGQAAKEFIAWLEKGR (X10 = K(gE-palm); C-terminal amide) [G812],"cAMP EC50 (assay 2, 3.2% mouse serum albumin)",[13],130 pM
HSQGTFTSDYSKK([γGlu-Palmitoyl])LDSERARDFVAWLVAGG-OH [G931],cAMP EC50 (assay 1),[6],130 pM
same,cAMP EC50 (assay 1),[8],17.8 pM
